Assay results as given in the nanobody polyreactivity screen of Harvey et al. (2022).

Test: yeast display, Sf9 membrane polyspecificity reagent, FACS + sequencing; frameworks hold sequencing errors
In short: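 Polyreactivity labels are assigned by the sorting gate from which each nanobody was recovered. The gates were low and high (top ~1%), set on anti-HA fluorescence for expression and streptavidin fluorescence for reagent binding. Before sorting, galactose-induced (36–48 hours) yeast display cells were stained for 1 hour at 4 °C with 10% biotinylated, detergent-solubilized Sf9 membrane reagent.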

| Sequence | polyreactivity (PSR sort gate) |
| --- | --- |
| QVQLVESGGALVQAGASLRLSCAASGRTFPLYAMGWYRQAPGKEMELVAAISARGSSTYYADSVKGRFTISRDNAKNTVYLQMNSLKAEDNAVYYCAAKRSYPYGSGYWGQGSQVTVSS | high polyreactivity |
| QVQLVESGGGLVQAGGSLRLICAASGSIFGYYAMGWYRQAPGKERELVAAISYSGSRTYYADSVKGRFTISRDNAKNTVYLQMNSLKPEDTAVYYCAARGSRLYSSWRGDYWGQGTQVTVSS | high polyreactivity |
| QVQLVESGGGLVQAGGSLRLSCAASGFTFAAYAMGWYRQAPGKERELVAAISWSGGSTRYADCVKGRYTISRDNAKNTVYLQKNSLIPEDTAVYYCNAVGYRVGIYSSKGDYWGQGTQVTVSS | high polyreactivity |
| QVQLVESGGGLVQAGGSLRLSCAASGNIFPPNTMGWYRQAPGKERELVAVITWSDGGTYADSVKGRFTISRDNAKNTVYLQMNSLKPEDSAVYYCNADYYFAAPKGEYTAWYDYWGQGTQVTVSS | low polyreactivity |
| QVQLVESGGGLVQAGGSLRLSCAASGRIFVSNAMGWYRQAPGKERELVASISWSGGSTYYADSVKGRFTISRDNAKNTVYLQMNSLKPEDTAVYYCNRVRYPRQGFRLYYWGQGTQVTVSS | high polyreactivity |
| QVQLVESGGGLVQAGGSIRLSCAASGGTFSAYAMGWYRQAPGKERELVAAINISGGRTYYADSVKGRFTISRDNAKNTVYLQMNSLKPEDTAVYYCAAKNFRDRGNDYWGQGTQVTVSS | high polyreactivity |
| QVQHVESGGGLVQAGGSLRLSCAASGFIFDFNAMGRYRPPPGKERELVATISSDGSTNYADSVKGRFTISRDNAKNTVYLQMNSLKPEDTAVYYCNKDSHKDAGTLPGWWYDYWGQGTQVTVSS | low polyreactivity |
| QVQLVESGGGLVQAGGSLRLSCAASGSIFGPYAMGWYRQAPGKERELVADIRTSGGGTYYADSVKGRFTISRDNAKNTVYLQMNSLKPEDTAVYYCNADPKWEMGSWGQGTQVTVSS | low polyreactivity |
| QVQLVESGGGLVQAGGSLRLSCAASGSTFGYYAMGWYRQAPGKERELVATITKRGGSTYADSVKGRFTISRDNAKNTVYLQMNSLKPEDTAVYYCAKLPFEDYDYWGQGTQVTVSS | low polyreactivity |
| QVQLVESGGGLVQARGSLRLTWAASGRTFGINAMGWYRQAPGKERELVAVISGSGGNTYYADSVKGRFTISRDNAKNTVYLQMNSLKPEDTAVYYFATSYEKFRYDHGYWGQGTQVTVSS | low polyreactivity |
| QVQLVESGGGLVQAGGSLRLSCAASGRILGQYAMGWYRQAPGKERELVAAISFRGGRTYYADSVKGRFTISRDNAKNTVYLQMNSLKPEDTAVYYCATDGWRSPYYRNYRYFYTEYYYWGQGTQVTVSS | high polyreactivity |
| QVQLVESGGGLVQAGGSLRLSCAASGFIFWWYAMGWYRQAPGKERELVASISWSGGSTYYADSVKGRFTISRDNAKNTVYLQMNSLKPEDTAVYYCAASRARTIPGPHTNFNYWGQGTQVTVSS | high polyreactivity |
| QVHRVESGGGLVQAGGSLRVSCAATGINFSDYAMGWYRQEPGKERQLVAAITGGGSTYYADSVKGRFTISRDNAKNTVYLQMNSLKPEDTAVSYCNAVWARLWIRSTEVDYRGQGTQVTVSS | low polyreactivity |
| QVQLVESGGGLVQAGGSLRLSCAASGRTFYHYAMGWYRQAPGKERELFAAISWTGGSTSSTYYADSVKGRFTISRDNAKNTVYLQMNSLKPEDTAVYYCAADFWWGHTWQDDYWGQGTQVTVSS | low polyreactivity |
| QVQLVESGGGLVQAGGSLRLSCAASGSILDQNTMGWYRQAPGKERELVAAITGSGGITYYADSVKGRFTISRDNAKNTVYLQMNSLKPEDTAVYYCATRTWRAYRKYNYWGQGTQVTVSS | high polyreactivity |
| QVQLVESGAGLVQAGGSLRLSCAASGFTFYYNAMGWYRQAPGKERELVASISSNGTSTYYADSVKGRFTISRDYAKNTVYLQMNSLKPEDTAVYYCNVDIFDPRTYDYWGQGTQVTVSS | low polyreactivity |
| QVQLVESGGGLVQAGGSLRLSCAASGITFTPNAMGWYRPAPGKEREFVAAITYSGGSTYYADSVKGRFTISRDNAKNTVYLQMNSLKPEDTAVYYCAAVYYLLYYEAYYYWGQGTQVTVSS | low polyreactivity |
| QVQLVESGGGLVQAGGSLRLSCAASGRTFRWYAMGWYRQAPGKERELVAAIRRSGGGTYYADSVKGRFTISRDNAKNTVYLQMNSLKPEDTAVYYCNTDYPVYQRGVISDGFDYWGQGTQVTVSS | low polyreactivity |
| QVQLVESGGGLVQAGGSLRLSCADSGFTFDWYAMGWYRQAPGKERELVAAISGRGGSTYYADSVKGRFTISRDNAKNTVYLQMNSLKPEDTAVYDCNAVYGAYRYEYWGQGTQVTVSS | high polyreactivity |
| QVQLVESGGGLVQAGGSLRLSCAASGRTFRYNAMGWYRQAPGKERELVATISSSGGSTSYADSVKGRFTISRDNAKNTVYLQMNSLKPEDTAVYYCAADEWGVRSEYDYWGQGTQVTVSS | low polyreactivity |
| QVQLVESGGGLVQAGGSLRLSCAASGGTFEPNAMGWYRQPPGKEREFVAAITWNGGRTNYADSVKGRFTISRDNAKNTVYLQMNSLKPEDTAVYYCAARSYTDYNYWGQGTQVTVSS | high polyreactivity |
| QVQLVESGGGLVQAGGSLRLTCGASGRIFRGYAMGCSRQAPGKERELVASISGGDSTYADSVKGRYTISRDNAKNTVYLQINSLKPEDTSVYYWAASSWYPALREYWGQGTQVSVSS | low polyreactivity |

| Sequence | polyreactivity (PSR sort gate) |
| --- | --- |
| QVQLVESGGGLVQAGGSLRLSCAASGTNQGVNAMGWYRQAPGKEREFDAAITGRGGNTYYADSVKGRYTISRDNAKNTVYLQLNSLKPDDTAVYYCAARVKDTRYQSMLDYFYWGQGTEVTVSS | high polyreactivity |
| QVQLVESGGGLVQAGGSLRLSCAASGSTFLYYAMGWYRQAPGKERELVAAIRVGGGRTYYADSVKGRFTISRDNAKNTVYLQMNSLKPEDTAVYYCAAKRRHRVPFDYWGQGTQVTVSS | high polyreactivity |
| QVQLVESGGGLVQAGGSLRISCAASGFTFDTNAMGWYRQAPGKERELVAAISRIGGRTYADSVKGRFTISRDNAKNTVYLQMNSLKPEDTAVYYCADDRSSAYRWRSAGYYKYDYWGQGTQVTVSS | low polyreactivity |
| QVQLVESGGGLVQAGGSLRISCDASGRTFYYYAMGWYRQAPGKERELVASITITDSTNYADSVKGRFTISRDNAKNTVYLQMNSLKPEDTAVYYCAKRGWGTSFYLSDYWGQGTEVTVSS | low polyreactivity |
| QDQLVESGGGLVQAGGSLRLSCAASGIIFGYYAMGWDRQAPGKERELVAAISSGGTTSYADSVKGPFTISRDNEKNTVSLQMNSLKPEYTAVYYCAARDGYDGFYYWGQGTQVTVSS | low polyreactivity |
| QVQLVESGGGLVQAGGSLRLSSAASGLIFYDNMGWSRQAPGKERELDAAISSSGGSTSDADSVKGRFTISRDNAKNTVYLQMNSLKPEDTAVYYCAADSYPDYLGFVGFDYWGQGTQVTVSS | low polyreactivity |
| QVQLVESGGGLVHAGGSLRLSCAASGSIFYRNVMGWYRQAPGKERELVAAISRSGGSTYYADSVKGRFTISRDNAKNTVYLQMNSLKPEDTAVYYCAVRYSPFYYWGQGTQVTVSS | high polyreactivity |
| QVQLVESGGGLVQPGGSLRLSCAASGRTFTGYTMGWYRQAPGKERELVAAIRWSGDRTYYADSVKGRFTISRDNAKNTVYLQMNSLKPEDTAVYYCAAARYVYGKFVGFDYWGQGTQVNVSS | high polyreactivity |
| QVQLVESGGGVVQAGGSHRLSCAASGSIFSSDAMGWYRQAPGKEREFVAAISSSGDSTYADSVKGRFTISRDNAKNTVYLQINSLKPEDTAVYYCAVGGAGSDDYWGPGTQVTVSS | low polyreactivity |
| QVQLVESGGGLVQAGGSLRLSCAASGRIFSLYAMGWYRQAPGKERELVAAISWSGGTTYDADSVKGRFTISRDNAKNTVYLQMNSLKPEDTAVYYCAAQYIGKKRFNYWGQGTQVTVSS | high polyreactivity |
| QVQLVESGGGLVQAGGSLRLSCAASGSIFDNYAMGWYRQAPGKERELVAAINFSDGDTYYADSVKGRFTISRDNAKNTVYLQMNSLKPEDTAVYYCAAEVWYPPEYYDEYDYWGQGTQVTVSS | low polyreactivity |
| QVQLVESGGGLVQAGGSLRLSCAASGLTIWRYAMGWYRQAPGKETEFVASISQNGGRTDYADSVKGRFTISRDNAKNTVYLQMNSLKPEDTAVYYCAARRYYGVYYAFYFWRQGTQVTVSS | high polyreactivity |
| QVQLVESGGGLVQAGGSLRLSCAASGRTLYLYAMGWYRQAPGKERELVAAITYGGGSTYYADSVKGRFTISRDNAKNTVYLQMNSLKPEDTAVYYCNAPGDGYLYDHTYDYWGQGTQVTVSS | low polyreactivity |
| QVQLVESGGGIVQAGGSLRLSCAASGSIFADYAMGWYRQAPGKERELVAVISRRGGTTYYADSVKGRFTISRDNAKNSVYLQMNSLKPEDTAVYYCAARRSFNEYDYWGQGTQVTVSS | high polyreactivity |
| QVQLVESGGGLVQAGGSLRLSCAASGSTFPKNAMGWTIQAPGKERELVADINTGGSTYYADSVKGRFTISRDNAKNTVYLQMNSLIPEDTAVYYCNTQSFYFVSYSSSRYLRYYWGQVTQVTVSS | low polyreactivity |
| QVQLVESGGGLVQAGGSLRLSCAASGFTIGPNAMGWYRQPPGKERELVAAISQSGGSTYADSVKGRFTISRDNAKNTVYLQMNSLKPEDTAVYYCAAQRARVNRYGGKFGYWGQGTQVTVSS | high polyreactivity |
| QVQLVESGGGLVQAGGSLRLSCAASGSTFQFYAMRWYRQAPGKERDLVAAIRSSDDSTYYADSVKGRFTISRDNAKNTVYLQMKSLKPEDTAVYYCAAVLDFYGVWYDYWGQGTQVTVSS | high polyreactivity |
| QVQLVESGGGLVQAGGSLRLSCAASGRIFPTNAMGWYRQAPGKERELVAAIPVSGGSTYYADSVKGRFTISRDNAKNTVYLQMNSLKPEDTAVYYCAVDDRASVGSRLDHWGQGTQVTVSS | low polyreactivity |
| QVQLVESGGGLVQAGGSLRLSCAASGSNFAKYAMGWYRQAPGKERELVAAISWRGGSTYYADSVKGRFTISRDNAKNTVYLQMNSLKPEDTAVYYCNKVGTWQGPYDYWGQGTQVTVSS | high polyreactivity |
| QVQLVESGGGLVQAGGSLRISCAASGFTSTYYAMGWYRPAPGTERELVAAITSSGTRTYYADSVKGRFTISRDIAKKTGYLQMNSLKPEDTAVYYCNASHRKGMYYWGLGTQVTVSS | high polyreactivity |
| QVQLVESVGGLVQAGGSLRLSCAASGSTFGYNAMGWYRHAPGKEMELVAAITRSSSRTYYADYVKGRFTISRDNAKNTVYLQMNSLKPEDTAVYYCAKVRYVVGSIFNYSYNYWGQGTQVTVSS | high polyreactivity |
